Laboratory results from patent CN113173994A (SHENZHEN INNOVA NANOBODI CO LTD, dated 2021).

B1: 纳米抗体1C5 (VHH)
VHH: QVQLQESGGGLVQAGGSLRLSCKASERTFSSYSMAWYRQAPGKKREFVASISWDDERTYYTDSVKGRFTISRPNAKNTVYLQMNSLKPEDTAVYYCAVGGLSDGLGPSYDYWGQGTQVTVSS
B2: 带有化学发光区序列的纳米抗体1C5-HAP (other)
chain: QVQLQESGGGLVQAGGSLRLSCKASERTFSSYSMAWYRQAPGKKREFVASISWDDERTYYTDSVKGRFTISRPNAKNTVYLQMNSLKPEDTAVYYCAVGGLSDGLGPSYDYWGQGTQVTVSSGGGGSGGGGSGGGGSIIPVEEENPDFWNREAAEALGAAKKLQPAQTAAKNLIIFLGDGMGVSTVTAARILKGQKKDKLGPEIPLAMDRFPYVALSKTYNVDKHVPDSGATATAYLCGVKGNFQTIGLSAAARFNQCNTTRGNEVISVMNRAKKAGKSVGVVTTTRVQHASPAGTYAHTVNRNWYSDADVPASARQEGCQDIATQLISNMDIDVILGGGRKYMFRMGTPDPEYPDDYSQGGTRLDGKNLVQEWLAKRQGARYVWNRTELMQASLDPSVTHLMGLFEPGDMKYEIHRDSTLDPSLMEMTEAALRLLSRNPRGFFLFVEGGRIDHGHHESRAYRALTETIMFDDAIERAGQLTSEEDTLSLVTADHSHVFSFGGYPLRGSSIFGLAPGKARDRKAYTVLLYGNGPGYVLKDGARPDVTESESGSPEYRQQSAVPLDEETHAGEDVAVFARGPQAHLVHGVQEQTFIAHVMAFAACLEPYTACDLAPPAGTTD
notes: Expressed in 293 cells

Assays:
[1] = target: T1, 重组AFP抗原(爱必信生物，货号Abt-P-208，GenbankID:174) (UniProt P02771 19-609, limits assumed); experiment: ELISA additivity test on coated AFP
T1 construct: Bought recombinant antigen; also called 甲胎蛋白; α-fetoprotein
T1 sequence (looked up): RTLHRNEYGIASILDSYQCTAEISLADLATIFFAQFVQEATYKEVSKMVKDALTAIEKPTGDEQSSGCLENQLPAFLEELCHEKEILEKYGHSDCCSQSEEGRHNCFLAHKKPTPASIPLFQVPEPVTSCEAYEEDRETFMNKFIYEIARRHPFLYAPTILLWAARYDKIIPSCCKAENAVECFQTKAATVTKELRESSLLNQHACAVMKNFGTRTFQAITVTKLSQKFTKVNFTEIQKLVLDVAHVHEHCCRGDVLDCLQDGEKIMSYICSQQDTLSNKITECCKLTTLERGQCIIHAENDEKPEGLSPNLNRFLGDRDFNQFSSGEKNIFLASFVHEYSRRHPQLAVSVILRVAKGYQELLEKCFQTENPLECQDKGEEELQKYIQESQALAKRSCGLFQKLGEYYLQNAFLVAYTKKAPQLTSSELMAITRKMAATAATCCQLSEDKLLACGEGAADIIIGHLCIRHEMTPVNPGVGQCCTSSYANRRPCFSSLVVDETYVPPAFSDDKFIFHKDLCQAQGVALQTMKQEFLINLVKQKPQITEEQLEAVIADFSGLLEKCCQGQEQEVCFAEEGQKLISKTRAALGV

血清标本中的AFP抗原 = target: T2, 血清标本中的AFP抗原 (UniProt P02771 19-609); experiment: double-antibody sandwich chemiluminescence assay, detection antibody
T2 construct: also called 质控血清AFP; 标准血清中的AFP
T2 sequence (looked up): T1 sequence (looked up)

Binder	binding result [1]	binding result (血清标本中的AFP抗原)
B1	binds	
B2		binds
